From the DeepSol protein solubility set come the findings set out here.

The series in a line: soluble on expression in E. coli; label from the status in PepcDB or PDB records.
Turning to “MTAAMYDLMDYDEVLEKFDPVMGLEVHVELATETKMFSAPSAHFGAEPNSNVDPVSLGLPGALPVVNAKGVEWAIKIGLALNCKIAESSRFARKNYFYPDQPKNYQISQYDEPIAYDGYLDVVLDDGTPWRVEIERAHMEEDTGKLTHLGGADGRIHGATASLVDCNRAGIPLIEIVTKPIEGAGERAPEVARAYVGALRDLVKALGVSDARMDQGSMRCDANVSLRPVGTVEFGTRTETKNINSLKSVEQAVRYEMQRQAQVLEDGGEIVQETRHYQETDGSTSKGRPKETAEDYRYFNDPDLPPVIAPKEWVEEIRATLPELPWIRRARIQKEWGLKDEEMRDLVNAGALDLIVETVEAGASASEARSWWVAYLSQKANESGVELDSLSITPQQVARVAALVKEGKLTNKLARQAVDGVLAGEGDVDEVVAARGLEVVRDDGAIEKAVDEALAANPDIVEKYKAGNTKVTGAIVGAVMKATRGKADPAQVNKLIAEKLA”, the “soluble on expression in E. coli” value is reported as “not soluble”.

As to “MTIDKLKLNTINLRNTFSNRSKPPISIITSTNKPKYFRNTIKNYTRLNYRYKELILIFNIDNIDIDYYKSYAEKIPNVMVFQLNECYSLGYCLNFGVNQSKYNYIAKMDDDDYYGPNYLTDEINAFNYTDAKIIGKCKYFTYFEDTRDLSINNYSQSYDYTNFIAGGTFLIKKELFKTYKFRDVNMSEDAGFLDDCSSHGIKIYSIDPFNYVYMRHKSLNEHTWKIPTTALKKQYFHFYKTTNYIPIVKILEHHHHHH”, the “soluble on expression in E. coli” value is given as “not soluble”. The entry for “MSLASFPHRNLTWNDINFVHTTDTHGWYSGHINQPLYHANWGDFISFTTHMRRIAHSRNQDLLLIDSGDRHDGNGLSDITSPNGLKSTPIFIKQDYDLLTIGNHELYLWENSKQEYETVVNHFQDKYVCSNVDIRLDNGLFVPLGLKYKYFTTPIRGIRVMAFGFLFDFKRFNSGTRVTPMAETIHEPWFQEALKHEVDLIIIVGHTPISHNWGEFYQVHQYLRQFFPDTIIQYFGGHSHIRDFTVFDSLSTGLQSGRYCETVGWTSVNLDKADLNLPVRQRFSRSYIDFNTDSFKYHTNLDKEFDTAKGKLVSKLIRETRKELKLDTLIGYVKTNYYVDYVPIDHPKSIFNLLALKILKTLPKSKHEERITIINTGSIRYDLYKGPYTIDSKFIVSPFENIWVNITVPKSVATKVAAKLNDADYISASRLKPPHQYDLQVQDLSTSPHQAHFEMQEKLPKGYVTHDDFGADGDDTLHRAVVNFPVPNVIQSVEINDEVDSPVNLVFYSFITPNIIWALKELNFSTEQVPTPYSDIYLGTLLNEFVANNEGHHHHHH” is “soluble”.

“MGSDKIHHHHHHMGNTVAMILAGGQGTRLGVLTERIAKPAVPFGGKYRLIDFTLSNCVNSGIYRVGVLTQYRPHVLSKHIGIGRPWDLDRKDGGVEILPPYVGRHESDWYKGTANAVYQNLEFLEENDAELVLILSGDHVYAMNYNDLIDYHLLKEADGTIACMEVPIEEASRFGIMITDVDGRIVDFEEKPAKPRSNLASLGIYVFNYEFLKKVLIEDENDPNSSHDFGKDVIPRILRENLGSLYAFRFDGYWRDVGTLRSYWEANLELVLPVPPFNLYDPNWRFFTHTEEMPPAYVAPGSKVSTSLVSEGAEVYGNVFNSVIFQGVKIGRGTVVKNSVIMTRTEIGENCYLENVIIAENVKIGSNVRMGVGEDAESKLDPKVYSGLLTVVGMNSVIPDDMVIGKNCVIGIGVRPEDFKSKTLESGDYVIVREE”: the “soluble on expression in E. coli” value is “not soluble”. To “MGSDKIHHHHHHPNDPIIYKKEGGAFLWLGDTAWELFHVLDKEEIVHYLDNRQEKGFTVIQAVILSELDGLDKPNAYGYLPLVDKDPTQITEGYFELVDFVIREAGKRGMYIGLLPTWANNVVEKDGNPALFNPDNAYTYGKILGTRYKNEAVIWILGGDRNVVTDKEFEIWQSMAKGIQEGNGGTQLMSYHPTGEISSHYWFHNESWLSFNILQSGHYRRMDPVYRFSGMYAQLNPIKPFVNAEPSYEDIPVLFWEYFDYAKFGKKKEDIIGDNGLIKDTTYFTDGIYDDYDIRMQAYWTYFSGAAGYTYGNNAIWQMYKPGGKYHVPCLTFWDGALDRPGAECMRYVKSLFTMYPLDRFRPDLSVLFGINYNDASYITPVLAKDKTFILVYLSQGQDVRIQMSKLRSLGKAYWFNPRNGARTLIGPVENKGIRTFNAPGEAGERGNDWILILEADDR” belongs “not soluble”; to “MGSDKIHHHHHHMNTEHAAYQIADELGGLELLNAHYHKQNFSRHTHEGYTVGVIETGAQRFYRTGGNHVAPKHSIILVNADEVHNGCSATEGGWSYRAMYPVPAQFAGINSERAANSGAPYFPEPVVYDPELAELLRLTFTTLDTSDNRLLRESLVYSSLTQLMARHGKHRPSDNLAAMAKPALALVKSFIDDHPAADISLEELATLAGLSPYYLLKQFQRYYGLPPHAYQIQARVRLAKGKIKQGTRLLDVALDCGFHDQSHLNRHFKKTVGVTPGQFAKEIGRNIIQA”, “not soluble”; to “MADLFDEFIEPGVKNEIMDVEEAPENPMEKLDSAKKRQAREDMTNLLANMHNDVGVGNFDEATSKRARVEEEEEVEEARMENIIVHTIRTDNENCTHEVAIPPNAEFAELRENSGTEPAKYYPFQLDAFQKQAILCIDNNQSVLVSAHTSAGKTVVATYAIAKCLREKQRVIYTSPIKALSNQKYRELEEEFKDVGLMTGDVTLNPDASCLVMTTEILRSMLYRGSEIMKEVGWVVYDEIHYMRDKERGVVWEETIILMSKNIKQAFLSATIPNARQFAQWVASIKQQPVNVVYTDYRPTPLQHWIYPVGGEGMYEVVNVKGEFREDKFRDAMSGLATAGDSAGSFNKRRTGGGTQGDSNVLKIIRSVASNDGLNCIVFSFSRKECESYAISLKDMDFNKDHEKGMVKSVYESAIAQLSPEDQKLPQILNILPLLRRGIGVHHSGLMPILKETIEILFGEGLVKVLFATETFSMGLNMPARTVVFTSARKFDGSDNRYITSGEYIQMAGRAGRRGKDDRGTVILMVDSAMSADDAKQIIKGATDPLNSQFRLTYNMVLNLMRVEGMAVSWIINNSFHQFQSYAKIPEIDKKCVQVERKIASFNFPWENEMRTLVDLQDQLEATRQRIIQIQREPKYIVGFLHAGRLFKVKSGDRDFKWGILNQFKKEQNPDDRNDQIYLCDMMIAINTEGRFDPTNPATLVPGFDLPKRRWIRVPMTIDRITAISAVRLKVPADIDKPDGQMRLDGMMAAATKRFGNQIPLLDPIQDMEIKTVEMKELIAREKSLEGRLETHSMTKRDNMKDLKKQFEQKQDAVKELNALKAERKSVQSTLHLEELNNRKRVLRRLGYLGNDDALVLKGSVACELSASDELILTEMLLKGIFNTLDVAQTAALLSCFVFQDKCAAPKLATELQTCLSELHEQARNVAKVSNECKMEVMEDKYVSSFNPGLMDVVYQWVNGATFSEIVKTTDVFEGSIIRTLRRLEEVLREMINAAKALANKELEQKFEDARKNLKRDIVFAASLYL”, “not soluble”. As to “GMKGISHRIAIPLILEVGNNKIYNIGQIIKKGNFKRVSLYFGEGIYELFGETIEKSIKSSNIEIEAVETVKNIDFDEIGTNAFKIPAEVDALIGIGGGKAIDAVKYMAFLRKLPFISVPTSTSNDGFSSPVASLLINGKRTSVPAKTPDGIVVDIDVIKGSPEKFIYSGIGDLVSNITALYDWKFEEENHKSIIDDFAVMISKKSVNSFVRTDFKSIKDEVFLKELVDSLTMNGIAMEIAGNSSPASGAEHLISHALDKFLPNPQLHGIQVGVATYIMSKVHKHREERIKKILSDTGFFNYVKGLNMKKSDFKRAISEAHLIKPARYTYLHVEKNCETAKEIVDTDEILRNILV”, the “soluble on expression in E. coli” value is given as “soluble”. To “MSLGEVAPTLAAYDLQGEAVALEQWEGKLVYLNFWSVNCGGCLAEMATLNQLSQEYQDQAVVVAINTDPEQVEIAPVLAQHNINYPVIRDQLGITQERYQVIGTPTSFLIDRNGKVIEWHQGVRNEQELTALFKQKVSEKEGHHHHHH” belongs “not soluble”; to “MGSDKIHHHHHHMQRARAEQRGRDLVIHLDRPLNQDHLETVSGGQGEFYVDFEVADPRKASVQQRRLFFALLHDIETYFVVPSEFLKSMFYTQYEFYTAGKSISLSDATESSVSDANTLLDLVIDFMFEWRVPFKKGYELLPKEEQYFIYQCCRHRVCIVCGEHADIHHVDVVGRTNRNKIDHSQRHVMALCRAHHSEIESIGSAKFAAKYHVPVTGIKLKIEDLQKLGIRGNYGGD”, “not soluble”. The entry for “MGSDKIHHHHHHMSIYNSIGKQYSQTRVPDIRIVNAIINLLNLPKGSVIADIGAGTGGYSVALANQGLFVYAVEPSIVMRQQAVVHPQVEWFTGYAENLALPDKSVDGVISILAIHHFSHLEKSFQEMQRIIRDGTIVLLTFDIRLAQRIWLYDYFPFLWEDALRFLPLDEQINLLQENTKRRVEAIPFLLPHDLSDLFAAAAWRRPELYLKAEVRAGISSFALANQDLVEKGLELLTADLNNGEWIRKYGEIHHLQEIDIGYRFIYTTLDK” is “not soluble”. The entry for “MDQFSEPEETQVEQVENPDRNEAGYEVCNQSGENLSVAIAYFDTSIDSYRSEGWWNLDQSKCQFFPNLLDSVDEVYVFAESDQTLWSGDFPFCMQEDAFEYPDANRDRCPSPAYSKGFLKVEVGDAKTWTTLEHHHHHH” is “soluble”; for “GSDALVGRLVKSSWDMKSLDLHSMLVETMSKSDHVLIVGFGRGGQTVGRVLAQEDIPYFALDLDIARVQVARSAGEPVSFGDAKRREVLEAAGLGRAKMVVVTLNNMHETQHVLDNVLSMYPNMPVYVRATNDDYVKTFTDIGAEEAVSDTKETGLVLAGYAMLGNGASYRHVYQTMANIRHSRYAALEGLFVGSDDEAGFGENGETVRHAFPLAAEAYAVGKTVGTLPMAAYGIKLLFVRRRTGRIENPDASFTLEGGDVLVVAGKKEEIISFENWSLQGI” it is “not soluble”. For the sequence “MAPKRLMVEHALARAKEAAGLADVKKVYTYYGDEACTVFIGRTKQGKAVVVWVPEKKGSVVVKGVDSGISEAEARAILQRDRRPRRIIDATLGMEKGVPLWELTYIDAEGRYSFYYLHFADGAFLKRYSFQQ”, the “soluble on expression in E. coli” value was “not soluble”. As for “LWALGNDSVTAKSLTISNFTLTERKTRYELCFLLDAKNSNTVNEPLSELKNCYGKDVSNVFRTITADNGSEFSRLSEMLQGLGIEAYFTHPYSSWERGTNERHNGLIRRFIPKGKAIKDFSEETIKRIQQWLNSLPRRILGYKTPEECFNEEIHNLVNKNISAIA”, the “soluble on expression in E. coli” value is “not soluble”. The entry for “MYRGEPGTRAHQQEEHVVDSSPLEPSSSLEDTRVWGHVGVAAAPRLLAQALPKLRCKLPKPQAPLAGHEAQQPRGGLILPLALASELMESSTVQWLSYKQPQVVPVVPQLPRVLWQVQPLEKPGSQSFRNNQPSILLKTRLRFSITRISLFNYHR” is “soluble”; for “MLPLIKRLFSSAPKDGEGAQKKWPFSYVVVLLLAGVALMAASHWANSGEEAEAKPSAGQPSAPAEPAFLASKETKEKVIAAYEERYEKELKAALEAIEGVDDVTVVVNLDSTELKLYEKKRSTQQQTTEESDKEGGKRTIENESTNEEVIIIHNGEEETPLVVATKKPDIRGVLVVAKGADNLQIKKWIVEAVTRVLNVPSYRVAVLPKK” it is “not soluble”; for “MTHYKYYEANVETNQVLVLLHGFLSDSRTYYNHIDKYTDICHVITIDLPGHGEDQSSMDETWNFDYITTLLDRILDKYKDKSITLFGYSMGGRVALYYAINGHIPISNLILESTSPGIKEEANQLERRLVDDARAKVLDIAGIELFVNDWEKLPLFQSQLELPVEIQHQIRLQRLSQSPQKMAKALRDYGTGQMPNLWPRLKEIKVPTLILAGEYDEKFVQIAKKMANLIPNSKCKLISATGHTIHVEDSDEFDTMILGFLKEEQND” it is “not soluble”. To “MMLITERRSPFYPNIQNVPPSVIRKLVKNKAITLIDVRQPWEYEDHHIPGSILLPLDYFKELFPLVLSKNNLVKNGVAIICEHANRSTWLVYTEPSLFKEVKVYNMLGGIELWMIMGYEIEKGMDDNGTLWYKLLTKNLGLEHHHHHH” belongs “not soluble”.
